A short description of the data set: soluble on expression in E. coli; label from the status in PepcDB or PDB records.
“AIAAQEENKRLVVVVPNEMTVPSRRAFTSEDEAWKSYLENPLTAATKAMMSINGDEDSVAALGILYDYYKVPKEKRLLPVHKLPEDHEKSRISQDGLESAENRIHVLKSLPVNLSLNPDSENKQDLFGTVPAEDGVVATVKPEVYAQSFSSHHQQLHYHRTPYHPHLQDSVSVSHDRYMKDDQCSTPDSTFEDSYPEDPMRYRVPTTPAAEDFTHEQAGLNMFQYNIEASRSVREKAADGPMVYLNKGQFYGITLSETGANKGLRHPISKVRTVVMVVFGQEKCRDEQLKHWNYWHTRQHTAKQRVLDIADYKESFNTIGNIEEIAYNAVSFTWDPAAVHKSFCASVILL”: the “soluble on expression in E. coli” value is given as “soluble”.
The result for “SVTASRYYPQLMSLVGNVLRFLPAFVRMKQLISEHYVGAVMICDARIYSGSLLSPSYGWICDELMGGGGLHTMGTYIVDLLTHLTGRRAEKVHGLLKTFVRQNAAIRGIRHVTSDDFCFFQMLMGGGVCSTVTLNFNMPGAFVHEVMVVGSAGRLVARGADLYGQKNSATQEELLLRDSLAVGAGLPEQGPQDVPLLYLKGMVYMVQALRQSFQGQGDRRTWDRTPVSMAASFEDGLYMQSVVDAIKRSSRSGEWEAVEVLTEEPDTNQNLCEALQRNNL” reads “soluble”; that for “MGSDKIHHHHHHMYCMEKCVENYFVLNEEIKDKKTFDGNFVENGKSLYEVIRIIDGIPLFLGNHIKRLENSFKIEKLSFPVSLDNIKQNIFKLIEANKCEVGNVKLVFNYFENKCDFYGYFVQHKYPDEYDYINGVKTILYHGERSNPNAKVINLNFRKNVDKKIKEKGVFEAILVDRNGNITEGSKSNIFMVKSNTVYTAPVEDVLPGITREIIVEICKQCGYTVVDEKINYKKIDQFEGLFISGTSPKVLPICQVDDIKFNSQGTEMIRNIRKAYDDYISNYIKNFDSRS”, “not soluble”.
With “GAASPGPSRPGLVPVSIIGAEDEDFENELETNSEEQNSQFQSLEQVKRRPAHLMALLQHVALQFEPGPLLCCLHADMLGSLGPKEAKKAFLDFYHSFLEKTAVLRVPVPPNVAFELDRTRADLISEDVQRRFVQEVVQSQQVAVGRQLEDFRSKRLMGMTPWEQELAQLEAWVGRDRASYEARERHVAERLLMHLEEMQHTISTDEEKSAAVVNAIGLYMRHLGVRTKSGDKK”, the “soluble on expression in E. coli” value is “soluble”.
With “MGSDKIHHHHHHVEASYAQRLRQEKGYAYADNCNTKTSLSIKMSMVLLTPTVSSNFEKDSLIYMAKKIHFISNSIVKEINNSDNVSILVLDKEEIISLFKANGILLFRGFDVDVDIFKEFTNLLSIDFINYAGGAFSRRVINGDQTVLSVNDFKSEIKLHGEMYYQKNIPLMLWFFCANPPLEDGETTVCDGRQFFHEISSSTKELFRQKNLKFTVRMSKEDWQKKYKTDDVNQLKEICRNNNTHLKIFDDRSIMLEYISPAIIPSRCGNYQVFINSLLPTKQLSPNILKFEDDSDIPEEVVSELNEIAEKITTEISWRKGDILMIDNTRILHGRRSFADDQRDIYIRLCSPAFSF”, the “soluble on expression in E. coli” value is reported as “not soluble”.
In the case of “MATQQAKILCCGDVNGNFVELIKKISTTEKKNGPFDSLFCVGEFFGDDDDSNEKVINGNIEFPIPTYILGPANPRYSYLYPEESIEFSSNLTYLGKKGLLNTASGLQIAYLSGVEGSSKDLSCFDKADVEELLIPLGTQVGFSGTDILLTSVWPADIARHSHNQPSKPQPGSVLLSKLAAHLKPRYHFAGLGVHYERQPYRNHRVLLEPARHTTRFIGLAAIGNPEKQKWLYACNVKPMRKMEKEELTAQPPNASEFPYRELLEEIAAKETLSRMNGNGQRPEGSQYRFEMGGAEDGAGNGRKRHNDGGNDGPRNKQPVGPCWFCLSNVDAEKHLVVAIGNKCYAAMPKGPLTEDHVMVLSVGHIQSQVSAPVEVRDEIEKFKSAFTLMANKQGKALVTFERNFRTQHLQVQMVMIDKSSSKALKSSFTTAAACAGFELVTMGPDESLLDMVNEGCPYFVAELPDGSKLFTRSMKGFPLHFGREVLASTPILDCEDKVDWKACVLAKEKEVELVNKLKSDFKPFDFTAEDDSD”, the “soluble on expression in E. coli” value is “not soluble”.
Consider “GPGSMNLGHAAASSIVVKVAELAKKAFYRLKISSAYSSKLTEAVGTALMSADPEVPVDPNRRSGGHVIRNMIYQHDSSHNIEIVTGWKDQGTREYNQQIAPPAKLDLSPKHPCYPLNEQLVRCSLECPMEMKLAGRIASCNSERKNLMVCLTKNKSWKEEPASAWYKFF”, for which the “soluble on expression in E. coli” value is given as “not soluble”.
For the sequence “MIENAKENSQRVELKDRIIETASEAFTTHGIKSITMDDIAASLGISKRTLYEVFQDKESLLTQCILKRQEEMNAFLAETLANSKNVLEVILVCYQRSIETFHRTNKRFFEDIKKYPKVHSLLKNYRERDSDSTIEFFKMGIKQGIFRDDVNFAIVNLLVHEQLDLLMNTDICNKYSFLEVYEAIMFTYIRGISTEKGAKVLEDFITEYRKQRIH”, the “soluble on expression in E. coli” value is reported as “not soluble”.
With “MGSDKIHHHHHHMSNRDKILSYRDLIKKKLIPLINADYVLLDVPNHPNIGDNLIWEGELRFLENIHYKCIYSANVHNWDENKIKDAKIILFHGGGNWGDLYRECQEHRLYIAEKFKDKRIIIFPQTVWYNNKSILPIDCKIFNNHADIHICLRDQMSMDILSNYVDAKKLYLLPDMAFFVDVEAMPMRKVRNDCILFMLRTDSEIDDITFKLESDFDVKDWPTFSNNKYILLLYSYFEYFKVVVSKRLQKCKFLNVFVSPIYGLNRKNNRERYIYKGINFFSNYEIIYTTRLHGLILGILMDKKVIIVDNKYNKCKNYYDTWLREFDNIELMS” the entry was “not soluble”; with “MGHHHHHHGGHMSLHSGSVEHCIKGRSRRAAPRSEHTGRMADIARKASAHWEGDLKSGNGTITTESGVLSQAQYSFKTRFENGKGTNPEELLASAHAGCFTMQLSALLAEHGHEIKALDTDATCEMVKDGPGFKINHMHLRVRAQLTGSDQADFEAHVKDAAEKCPLSRIMQGNVEVTHEAILEGEGGS”, “soluble”; with “MAYGVMSWWDYGHYIETLGHRMPNANPFQAGIGGRRGSINETNVPGAAPFLTAQSEEEATEVLESIHPDPEKSGARYIMSDERMAVDIFMAMPEWTLDTEGYMQPYWTGDGYQYLPSKRYFDSMESRLHFLDGNGLKQYRLVYETWAYQTQEAGYKQVYNFLYGSSIPEVDSGYVKIFEYVKGAKITGTVSPNETVNINTTILTGQGRTFEYSQLEHHHHHH”, “not soluble”.
Turning to “MSLRHSGAPLSPRNVCPMKTIAPCMAAMMLLSGCNGVPTSYVSDPVYSQAFVVTSGAPLPMLLMASAIQWNEDYAVTAKHTPFLRNVVHEGLGDVVFFKHKASSVPHWRQYVPGEAVTAVGFNSFMMPMQGKGHALSSLVRLEGTPGSVFYSVHDGPITKGMSGGPVFADDGKVVGINVAIIPTDEINAGKRPDLVGKDRISVFMSFSEIDKEWRRYQYLLAHKAKPKAPAAVKGYVAVAAKEGHHHHHH”, the “soluble on expression in E. coli” value is “not soluble”.
Regarding “MSERSVSKQDQEKRWYTVLAPEEFDRAELGETLAEEPDQVYDRTIQAALSDVRDGGDNNIKLTFQIDDVGSDSASTQFVQAELTRDYQRSLVRRGSSKVAVTVTVLTTDDYRVRIQPVAYTTKQADQSQQHAIRRTMIDLVEEAGEERTFEALLNSIIEGRLSSAIYDEANTIYPLRRVEVEKATLEAHPEEVHEEEETAVDFSGELEHHHHHH”, the “soluble on expression in E. coli” value is given as “soluble”.
Regarding “MGSDKIHHHHHHMTSSVASDLSSFVRFADIPPEFQPTDAHPIRVRSRLMPSGRRIARHTHAWAQVAYASRGVLRVATTGTTWMVPPSRAIWVPPHVTHEVVAVEDAFLRTLYITESTVPAGLDTPRVVEVSDLLREVIAALDTPGISATREQLLGALALDELTRSEPLPLSVPMPNEKRLRALCEAVIADPTHGESLEQWASSVGASTRTIARLFRQELGVSFSQWRQQAILARAIPLLSQGRPLSHVALELGYQSQSAFSAMFRRAFGESPRAFIERGSEHRVEDGERGDMETDNETAAQDRADVADVADVADDAGDAGDAGDTGDTGDTGDVGDVGDADDSEL”, the “soluble on expression in E. coli” value was “not soluble”.
With “GPGSMPADEAQAPTQTEVYDRLKWNGWGVEDVQMQIDDENPLWVRHVDGKPIKNLLEFLYQEISGGVGPKEIPPLSPSIPLEKALAKLNKANINEAFMKDISAVLEKSQIRPDGKSRLCHIAGKNYRDLWRVRKGMVEHAPDCILLPNSHKDCVEIMRLAHKHNVVVIPFGGGTNVTGGVEADPFERARMIISVDMRRMNRMISIDRESRLATFETGVLGPDLDAQLFRHGFMLGHDPDSYIYSTLGGWIGARGSGAMSNQYGDIEDMVVAVKVATPTGIIETPTTSRTCGVDLNGLFIGSEGSFGIITEATIKLETIPETKLYEGYLFPTFEAGFSAFYTCTAKGIHPCTMRLYDEDDFRMSMAMSTTKHSFFQRLVSMGVKSFLERYRGWNLRRISLVIVGFEGTPDRVKFQRSETAAVFKQYGGVGVGRSAGATWQDKKYDLPYIRDFALSLSHWADVFETSVLYSQAIPCWRAVKAAVRQVWKEHGHRGWIGCHTAHQYKYGCCLYFTFASAQKDDMDMKIFLAIKKRATEAMLAHTGNLTHHHGIGYEHVPWMSRYMGPDALDLLFAVKQKVDPKNICNPGKLLPSPPRENESAAALKARQQRELMFDKMGVPGAVASHI” the entry was “not soluble”; with “MTSLILPTDDGGTREYRLQAATSWVKPTAPLTARRAYAAAHVIPEVAADNTPGAPAQLDWDATLAYRHELWSYGLGVADAMDTAQRGMGLDWAATQQLIKRTGAEAASVVAAGNAAITGKSVRDLVSCGAGTDQLDITALPEGAAGIQAVIDAYREQIAVVSEAGPKVILMASRALAKVANGADDYLHVYSTLLQEVDQPVILHWLGTMFDPALAGYWGSDDVSVATDTFLSLIREHSDKVDGVKVSLLDASHEVALRAALPEGVRLYTGDDFNYPELIDGDQTHHSDALLGIFAAIYPAASVALQKYDAGQGTEGRAILDSTRELGKHIFSAPTFYYKTGIAFMSWLNGKQPGFQMVGGLHSGRSVLHLAKTFELADQAGLLKDPSLAAFRMSDFLRINGVG”, “not soluble”.
In the case of “MSRDIDYGNLMHTAMRGLIKTVLADVAQHGLPGAHHFFITFDTRYEGVQLADWLADRYPGEMTIVMQHWYENLDVGEDGFAITLNFGDSPEPLYIPYDAIRTFVDPSVEFGLRFESPDFDEDDEDDIEVEEEPDAPKPDAEVVSLDSFRKPLEHHHHHH”, the “soluble on expression in E. coli” value is on record as “soluble”.
The result for “MGHHHHHHSHMNVVKASPQSALLLYISELIQEKNPMNAMNVVKPSARKYASYNMRDVIQERLPLYVPSAENPIHTNMASLPIREFTQERNLMSAMNVERPSPQSQYSMYIKERIQERGRMDAVIVRKPSPTYQTLSNIRKCTQEKWVESVKLKTPVMESHSSFLISELMQKKTLLVP” reads “not soluble”; that for “MRGSHHHHHHTDPALRARNRTLADLDRVVALGGGHGLGRVLSSLSSLGSRLTGIVTTTDNGGSTGRIRRSEGGIAWGDMRNCLNQLITEPSVASAMFEYRFGGNGELSGHNLGNLMLKALDHLSVRPLEAINLIRNLLKVDTHLIPMSEHPVDLMAIDDQGHEVYGEVNIDQLTTPIQELLLTPNVPATREAVHAINEADLIIIGPGSFYTSLMPILLLKEIAQALRRTPAPMVYIGNLGRELSLPAANLKLESKLAIMEQYVGKKVIDAVIVGPKVDVSAVKERIVIQEVLEASDIPYRHDRQLLHNALEKALQALGGLCGR”, “soluble”.

Values taken from the DeepSol protein solubility set.
